Assay results taken from article PMC10152144 (2026).

Target: Arp2/3 complex (Bos taurus, UniProt A7MB62)
Experiment: single-filament microfluidics TIRF detachment assay

B1: VCA motif VCA (protein)
chain: PSDGDHQVPTTAGNKAALLDQIREGAQLKKVEQNSRPVSCSGRDALLDQIRQGIQLKSVADGQESTPPTPAPTSGIVGALMEVMQKRSKAIHSSDEDEDEDDEEDFEDDDEWED
For B1, the Kd was 0.56 µM.

B2: GMF (protein)
chain: SDSLVVCEVDPELKETLRKFRFRKETNNAAIIMKVDKDRQMVVLEDELQNISPEELKLELPERQPRFVVYSYKYVHDDGRVSYPLCFIFSSPVGCKPEQQMMYAGSKNRLVQTAELTKVFEIRTTDDLTETWLKEKLAFFR
B2 was tested, and the Kd was 0.07 µM.
